The assay has as its target poly-SUMO2 chains (3–8) (UniProt P61956). Put plainly: SPR.
Chain of UniProt P61956 (P61956 whole entry): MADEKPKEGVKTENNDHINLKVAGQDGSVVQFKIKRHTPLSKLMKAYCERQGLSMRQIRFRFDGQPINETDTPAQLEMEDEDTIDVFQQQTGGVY

B1: RNF111(282–411) fragment, wild type (domain or fragment)
chain: SENHQNNPAVPSGSIDEDVVVIEASSTPQVTANEEINVTSTDSEVEIVTVGESYRSRSTLGHSRSHWSQGSSSHASRPQEPRNRSRISTVIQPLRQNAAEVVDLTVDEDEPTVVPTTSARMESQATSASI
Regarding B1, the Kd is 15 µM.

These data come from article PMC3678163.
